Patent publication US11274132B2, “Combined preparations of PKM2 modulators and HMGB1” (Ruprecht-Karls-Universität Heidelberg, priority 2015, dated 2022)

Tests used:
[1] = system: colon carcinoma cell lines; assay: LDH release assay; format: cell-based, human; settings: all colon carcinoma cell lines used; p<0.05, n=4
Protocol: Lactate dehydrogenase activity was assayed spectrophotometrically by measuring the oxidation of NADH with pyruvate substrate at 340 nm as described in Bergmeyer and Berndt E. (1974). Results were analyzed using the following equation: […]

[2] = system: colon carcinoma cell lines; assay: MTT assay; format: cell-based, human; settings: all colon carcinoma cell lines used; 0, 24, 48 hours; p<0.05, n=4
Protocol: Assays were performed at three time points (0, 24, 48 hours), and the experiment was repeated four times. At each time point the cell viability was measured using the 3-(4,5-dimethylthiazol-2-yl)-2,5-diphenyl tetrazolium bromide (MTT) assay. The MTT assay was performed as described by Mosmann (Mosmann T. Rapid colorimetric assay for cellular growth and survival: application to proliferation and cytotoxicity assays. J Immunol Methods. 1983;65:55-63.). In brief, at each time point, medium was aspirated from the wells and MTT (1 mg/ml) was gently added to each well. The cells were incubated for 3 hours at 37° C. in 5% CO2, after which the MTT was aspirated and acidified isopropanol (0.04 M HCl) added to solubilize the reduced blue formazan crystals. Aliquots were transferred to a 96-well plate and the absorbance measured at a test filter of 590 nm and a reference filter of 630 nm on a 96-well plate reader.

B1: GInHMGB1: HMGB1 polypeptide with its B-Box domain tyrosine residues replaced by glutamine (SEQ ID NO:12), expressed in HEK cells (protein)
chain: MGKGDPKKPRGKMSSYAFFVQTCREEHKKKHPDASVNFSEFSKKCSERWKTMSAKEKGKFEDMAKADKARYEREMKTYIPPKGETKKKFKDPNAPKRPPSAFFLFCSEQRPKIKGEHPGLSIGDVAKKLGEMWNNTAADDKQPQEKKAAKLKEKQEKDIAAQRAKGKPDAAKKGVVKAEKSKKKKEEEEDEEDEEDEEEEEDEEDEDEEEDDDDE
modifications: HMGB1 Y -> Q mutein
[1]
  release of LDH into the medium compared to the untreated control: significant release of LDH
[2]
  proliferation (cell viability, MTT) compared to the untreated control: significant decrease in proliferation
